The results in this text go back to article PMC11779849, “Outside-in engineering of cadherin endocytosis using a conformation strengthening antibody” (Nature Communications, 2025).

Assay [1] concerns the target T1, human P-cadherin W2A mutant ectodomain (EC1-5) (Homo sapiens, UniProt P22223, point mutant, biotin on the Avi-tag (BirA enzyme)).
T1 construct: signal peptide in the construct; Made with the Q5 site-directed mutagenesis kit from the WT ectodomain construct; also called Pcad W2A; W2A Pcad; source: Expi293 suspension cells, transfected, purified from conditioned media (Ni-NTA), biotinylated with BirA; not shown: Avi-tag, C-terminal, kept
Kind of assay: far-Western, overlay or dot blot; Western blot: purified Pcad ectodomains boiled in SDS-PAGE sample buffer with 2-mercaptoethanol, run on gels, transferred to PVDF; probed with CQY684. As to conditions: both partners purified. For orientation: Immunoblotting shows a protein as a band on a membrane.

Assay [2] deals with T2, wild-type human P-cadherin ectodomain (EC1-5) (human, UniProt P22223, biotin on the Avi-tag (BirA enzyme)).
T2 construct: signal peptide in the construct; human P-cadherin (placental cadherin), complete extracellular region EC1-5, ectodomain (1-654); Cloned into pcDNA3.1(+); residue numbers W2, K14 count on the mature protein; also called Pcad WT; WT Pcad; source: Expi293 suspension cells, transfected, purified from conditioned media (Ni-NTA), biotinylated with BirA; not shown: Avi-tag, C-terminal, kept
T2 sequence (P22223 108-654): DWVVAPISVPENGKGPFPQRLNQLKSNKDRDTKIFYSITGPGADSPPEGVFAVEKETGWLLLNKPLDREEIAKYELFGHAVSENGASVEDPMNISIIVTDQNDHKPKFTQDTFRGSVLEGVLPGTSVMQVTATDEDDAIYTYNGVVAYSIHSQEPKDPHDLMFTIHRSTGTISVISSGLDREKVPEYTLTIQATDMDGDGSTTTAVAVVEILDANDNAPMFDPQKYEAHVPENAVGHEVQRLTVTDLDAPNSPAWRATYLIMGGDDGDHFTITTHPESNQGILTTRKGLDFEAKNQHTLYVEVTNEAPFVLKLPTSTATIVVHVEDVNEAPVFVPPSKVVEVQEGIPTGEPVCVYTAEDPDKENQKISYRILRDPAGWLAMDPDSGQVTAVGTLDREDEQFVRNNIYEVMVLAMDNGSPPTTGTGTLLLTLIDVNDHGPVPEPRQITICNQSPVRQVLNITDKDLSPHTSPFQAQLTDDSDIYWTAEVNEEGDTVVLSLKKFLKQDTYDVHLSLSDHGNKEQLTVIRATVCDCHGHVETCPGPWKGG
Kind of assay: single-molecule AFM force spectroscopy; as the -CQY experiment but with 40 nM CQY684 Fab in the buffer (+CQY); Pcad EC1-5 on cantilever and substrate; 1 µm/s; Tris buffer pH 7.5 with 2.5 mM CaCl2. Conditions: both partners purified.

T1 sequence (P22223 whole entry, looked up, stated change not applied, the tested form may be a part): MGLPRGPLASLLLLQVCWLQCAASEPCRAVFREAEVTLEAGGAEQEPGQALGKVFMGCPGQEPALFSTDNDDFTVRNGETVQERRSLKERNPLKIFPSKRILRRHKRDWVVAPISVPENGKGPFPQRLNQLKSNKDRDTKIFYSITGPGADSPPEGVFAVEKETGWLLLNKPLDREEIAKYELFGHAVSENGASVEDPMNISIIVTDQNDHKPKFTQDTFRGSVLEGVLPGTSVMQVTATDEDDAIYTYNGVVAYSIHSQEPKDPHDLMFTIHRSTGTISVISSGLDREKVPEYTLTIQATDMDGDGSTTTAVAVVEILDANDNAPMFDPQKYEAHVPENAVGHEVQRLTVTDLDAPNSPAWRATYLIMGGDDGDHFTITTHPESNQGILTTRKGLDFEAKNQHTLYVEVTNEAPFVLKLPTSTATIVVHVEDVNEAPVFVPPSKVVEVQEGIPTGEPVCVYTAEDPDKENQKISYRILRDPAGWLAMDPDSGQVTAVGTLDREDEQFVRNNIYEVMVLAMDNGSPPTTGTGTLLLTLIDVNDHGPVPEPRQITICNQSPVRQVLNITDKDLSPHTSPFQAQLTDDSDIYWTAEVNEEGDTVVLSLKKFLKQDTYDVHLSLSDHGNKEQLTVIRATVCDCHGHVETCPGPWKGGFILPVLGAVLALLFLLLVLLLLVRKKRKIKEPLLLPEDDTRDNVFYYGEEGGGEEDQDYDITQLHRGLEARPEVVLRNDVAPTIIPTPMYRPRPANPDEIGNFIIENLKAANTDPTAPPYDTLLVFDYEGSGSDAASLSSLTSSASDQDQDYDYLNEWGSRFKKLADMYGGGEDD

B1: CQY684 Fab (Fab, V domains shown)
VH: QVQLQQSGPGLVKPSQTLSLTCAISGDSVSSQSAAWNWIRQSPSRGLEWLGRIYYRSKWYNDYALSVKSRITINPDTSKNQFSLQLNSVTPEDTAVYYCARGEGYGREGFAIWGQGTLVTVSS
VL: DIQMTQSPSSLSASVGDRVTITCRASQTISNTLAWYQQKPGKAPKLLIYAASNLQSGVPSRFSGSGSGTDFTLTISSLQPEDFATYYCQQYLSWFTFGQGTKVEIK
notes: variable region cloned into a human IgG Fab backbone; the constant parts of the GenScript human IgG Fab backbone may differ from those in PDB 6ZTR; also called CQY Fab; antibody part of the antibody-drug conjugate PCA062; source: recombinantly generated by GenScript
Regarding B1, the binding result in assay [1] and in assay [2] was “binds” in each case.
